Tests used:
[1] = molecular target: T1, Fzd1 cysteine rich domain (CRD), C-terminally biotinylated (human, UniProt Q9UP38 101-230); experiment: BLI; **=Kd 100-2000 nM
Protocol: (§1) Binding kinetics of antibody fragments to a variety of Fzd cysteine rich domain (CRD) protein targets (Fzd1, Fzd2, Fzd3, Fzd4, Fzd5, Fzd6, Fzd7, Fzd8, Fzd9 and/or Fzd10 CRDs) was determined by bio-layer interferometry (BLI) using Octet Red 96 (PALL ForteBio, Fremont, CA) instruments at 30° C., 1000 rpm with streptavidin (SA) biosensors. C-terminal biotinylated Fzd CRD recombinant protein was diluted to 20 nM in the running buffer (PBS, 0.05% Tween-20, 0.5% BSA, pH 7.2) and captured to the SA biosensor until coupling length reached 0.2 nm. Following capture of the Fzd CRD, the SA biosensor with captured biotinylated-Fzd CRD was dipped into wells containing the relevant antibody fragment at […] (0, 1.37, 4.12, 12.4, 37, 111.1, 333.3, 1000 nM) in running buffer, plus a well with only running buffer as a reference channel. […] was determined by global fitting, 1:1 binding model according to manufacturer recommended settings.
(§2) Table 1B provides clone IDs, the sequence identifier number of the antibody heavy chain fragment and/or light chain fragment, if present, for illustrative clones. In certain embodiments, the Fzd binding domain is an Fab or was derived from an Fab, so the heavy chain of Table 1B includes VH and CH1 sequence, but not CH2 or CH3 sequences. In certain embodiments, the Fzd binding domain is a VHH or sdAb® or was derived from a VHH or sdAb, so Table 1B includes the VHH domain. […] The Kd values were determined by BLI as described above. Blank entries denote that the binding to the specific Fzd receptor has not yet been determined. The entry of "n.b." indicates no binding.

[2] = molecular target: Fzd2 cysteine rich domain (CRD), C-terminally biotinylated (human, UniProt Q14332 24-155); experiment: BLI
Protocol: as §1, §2

[3] = molecular target: T1, Fzd1 cysteine rich domain (CRD), …; experiment: BLI
Protocol: as §1, §2

[4] = molecular target: T1, Fzd1 cysteine rich domain (CRD), …; experiment: BLI; *=Kd <=100 nM
Protocol: as §1
One antibody fragment, clone 001S-A04, was selected for alanine-scanning mutagenesis of CDRs, and the respective Fzd1 binding affinities of the various mutants were determined by Octet BLI as described in Example 1.

KD [4] [nM]	Binder	further results
–	002S-F03 (VHH) VHH: AVQLVESGGGLVQAGGPLRLSCAASGRTSSSYAMGWFRQAPGKEREFVAAISWSGGSTYYADSVKGRFTISRDNAKNTVYLQMDSPIPEDTAVYYCAAGPIARWYRGDMDYWGKGTLVTVSS	Kd [1]: 100 to 2000 nM
–	002S-E02 (VHH) VHH: QVQLVESGGGLVQPGGSLRLSCAASGFTFREYAMTWVRQSPGKRLEWVSGISRDGGRTSYSDSLKGRFTISRDNAKNTLYLQMNNLTPEDTAVYYCAPRVLVTAPSGGMDYWGKGTQVTVSS	Kd [1]: 100 to 2000 nM
–	004S-C09 (Fab, V domains shown) VH: QVQLVQSGAEVKKPGASVKVSCKASGYTFTNNFMHWVRQAPGQGLEWMGGFDPEDGETIYAQKFQGRVTMTRDTSTSTVYMELSSLRSEDTAVYYCARVGRGYSFDYWGQGTLVTVSS VL: not shown	binding result [2]: no binding (tested: 1000 nM); binding result [3]: no binding (tested: 1000 nM)
≤ 100	001S-A04 mutant VHG10A (Fab, V domains shown) VH: EVQLVQSGAEVKKPGASVKVSCKASGYTFTSYGISWVRQAPGQGLEWMGWISAYNGNTNYAQKLQGRVTMTTDTSTSTAYMELRSLRSDDTAVYYCASSKEKATYYYAMDVWGQGTTVTVSS VL: QAVVLQEPSLSVSPGGTVTLTCGLSSGSVSTNYYPSWYQQTPGQAPRTLIYYTNTRSSDVPERFSGSIVGNKAALTITGAQPDDESVYFCLLYLGRGIWVFGGGTKLTVLG	–
≤ 100	001S-A04 mutant VHV13A (Fab, V domains shown) VH: EVQLVQSGAEVKKPGASVKVSCKASGYTFTSYGISWVRQAPGQGLEWMGWISAYNGNTNYAQKLQGRVTMTTDTSTSTAYMELRSLRSDDTAVYYCASSKEKATYYYGMDAWGQGTTVTVSS VL: QAVVLQEPSLSVSPGGTVTLTCGLSSGSVSTNYYPSWYQQTPGQAPRTLIYYTNTRSSDVPERFSGSIVGNKAALTITGAQPDDESVYFCLLYLGRGIWVFGGGTKLTVLG	–
≤ 100	001S-A04 mutant VLG7A (Fab, V domains shown) VH: EVQLVQSGAEVKKPGASVKVSCKASGYTFTSYGISWVRQAPGQGLEWMGWISAYNGNTNYAQKLQGRVTMTTDTSTSTAYMELRSLRSDDTAVYYCASSKEKATYYYGMDVWGQGTTVTVSS VL: QAVVLQEPSLSVSPGGTVTLTCGLSSGSVSTNYYPSWYQQTPGQAPRTLIYYTNTRSSDVPERFSGSIVGNKAALTITGAQPDDESVYFCLLYLGRAIWVFGGGTKLTVLG	–
≤ 100	001S-A04 mutant VLL4A (Fab, V domains shown) VH: EVQLVQSGAEVKKPGASVKVSCKASGYTFTSYGISWVRQAPGQGLEWMGWISAYNGNTNYAQKLQGRVTMTTDTSTSTAYMELRSLRSDDTAVYYCASSKEKATYYYGMDVWGQGTTVTVSS VL: QAVVLQEPSLSVSPGGTVTLTCGLSSGSVSTNYYPSWYQQTPGQAPRTLIYYTNTRSSDVPERFSGSIVGNKAALTITGAQPDDESVYFCLLYAGRGIWVFGGGTKLTVLG	–
≤ 100	001S-A04 mutant VHK4A (Fab, V domains shown) VH: EVQLVQSGAEVKKPGASVKVSCKASGYTFTSYGISWVRQAPGQGLEWMGWISAYNGNTNYAQKLQGRVTMTTDTSTSTAYMELRSLRSDDTAVYYCASSKEAATYYYGMDVWGQGTTVTVSS VL: QAVVLQEPSLSVSPGGTVTLTCGLSSGSVSTNYYPSWYQQTPGQAPRTLIYYTNTRSSDVPERFSGSIVGNKAALTITGAQPDDESVYFCLLYLGRGIWVFGGGTKLTVLG	–
≤ 100	001S-A04 mutant VLL1A (Fab, V domains shown) VH: EVQLVQSGAEVKKPGASVKVSCKASGYTFTSYGISWVRQAPGQGLEWMGWISAYNGNTNYAQKLQGRVTMTTDTSTSTAYMELRSLRSDDTAVYYCASSKEKATYYYGMDVWGQGTTVTVSS VL: QAVVLQEPSLSVSPGGTVTLTCGLSSGSVSTNYYPSWYQQTPGQAPRTLIYYTNTRSSDVPERFSGSIVGNKAALTITGAQPDDESVYFCALYLGRGIWVFGGGTKLTVLG	–
≤ 100	001S-A04 mutant VLI8A (Fab, V domains shown) VH: EVQLVQSGAEVKKPGASVKVSCKASGYTFTSYGISWVRQAPGQGLEWMGWISAYNGNTNYAQKLQGRVTMTTDTSTSTAYMELRSLRSDDTAVYYCASSKEKATYYYGMDVWGQGTTVTVSS VL: QAVVLQEPSLSVSPGGTVTLTCGLSSGSVSTNYYPSWYQQTPGQAPRTLIYYTNTRSSDVPERFSGSIVGNKAALTITGAQPDDESVYFCLLYLGRGAWVFGGGTKLTVLG	–
≤ 100	001S-A04 mutant VLG5A (Fab, V domains shown) VH: EVQLVQSGAEVKKPGASVKVSCKASGYTFTSYGISWVRQAPGQGLEWMGWISAYNGNTNYAQKLQGRVTMTTDTSTSTAYMELRSLRSDDTAVYYCASSKEKATYYYGMDVWGQGTTVTVSS VL: QAVVLQEPSLSVSPGGTVTLTCGLSSGSVSTNYYPSWYQQTPGQAPRTLIYYTNTRSSDVPERFSGSIVGNKAALTITGAQPDDESVYFCLLYLARGIWVFGGGTKLTVLG	–
≤ 100	001S-A04 mutant VLL2A (Fab, V domains shown) VH: EVQLVQSGAEVKKPGASVKVSCKASGYTFTSYGISWVRQAPGQGLEWMGWISAYNGNTNYAQKLQGRVTMTTDTSTSTAYMELRSLRSDDTAVYYCASSKEKATYYYGMDVWGQGTTVTVSS VL: QAVVLQEPSLSVSPGGTVTLTCGLSSGSVSTNYYPSWYQQTPGQAPRTLIYYTNTRSSDVPERFSGSIVGNKAALTITGAQPDDESVYFCLAYLGRGIWVFGGGTKLTVLG	–
≤ 100	001S-A04 mutant VLV10A (Fab, V domains shown) VH: EVQLVQSGAEVKKPGASVKVSCKASGYTFTSYGISWVRQAPGQGLEWMGWISAYNGNTNYAQKLQGRVTMTTDTSTSTAYMELRSLRSDDTAVYYCASSKEKATYYYGMDVWGQGTTVTVSS VL: QAVVLQEPSLSVSPGGTVTLTCGLSSGSVSTNYYPSWYQQTPGQAPRTLIYYTNTRSSDVPERFSGSIVGNKAALTITGAQPDDESVYFCLLYLGRGIWAFGGGTKLTVLG	–
≤ 100	001S-A04 mutant VLR6A (Fab, V domains shown) VH: EVQLVQSGAEVKKPGASVKVSCKASGYTFTSYGISWVRQAPGQGLEWMGWISAYNGNTNYAQKLQGRVTMTTDTSTSTAYMELRSLRSDDTAVYYCASSKEKATYYYGMDVWGQGTTVTVSS VL: QAVVLQEPSLSVSPGGTVTLTCGLSSGSVSTNYYPSWYQQTPGQAPRTLIYYTNTRSSDVPERFSGSIVGNKAALTITGAQPDDESVYFCLLYLGAGIWVFGGGTKLTVLG	–
≤ 100	001S-A04 mutant VLY3A (Fab, V domains shown) VH: EVQLVQSGAEVKKPGASVKVSCKASGYTFTSYGISWVRQAPGQGLEWMGWISAYNGNTNYAQKLQGRVTMTTDTSTSTAYMELRSLRSDDTAVYYCASSKEKATYYYGMDVWGQGTTVTVSS VL: QAVVLQEPSLSVSPGGTVTLTCGLSSGSVSTNYYPSWYQQTPGQAPRTLIYYTNTRSSDVPERFSGSIVGNKAALTITGAQPDDESVYFCLLALGRGIWVFGGGTKLTVLG	–
≤ 100	001S-A04 mutant VHK2A (Fab, V domains shown) VH: EVQLVQSGAEVKKPGASVKVSCKASGYTFTSYGISWVRQAPGQGLEWMGWISAYNGNTNYAQKLQGRVTMTTDTSTSTAYMELRSLRSDDTAVYYCASSAEKATYYYGMDVWGQGTTVTVSS VL: QAVVLQEPSLSVSPGGTVTLTCGLSSGSVSTNYYPSWYQQTPGQAPRTLIYYTNTRSSDVPERFSGSIVGNKAALTITGAQPDDESVYFCLLYLGRGIWVFGGGTKLTVLG	–
–	004S-D08 (Fab, V domains shown) VH: QVQLVQSGAEVKKPGSSVKVSCKASGYTFTYRYLHWVRQAPGQGLEWMGGIIPIFGTANYAQKFQGRVTITADESTSTAYMELSSLRSEDTAVYYCATHDSSGYYSFDYWGQGTLVTVSS VL: not shown	binding result [2]: no binding (tested: 1000 nM); binding result [3]: no binding (tested: 1000 nM)
